In PMC4709122 (Nature structural & molecular biology, 2015) one finds Kd data, which are given here for 1 molecule.

Assay in all cases: fluorescence polarisation
In general terms: Polarisation of emitted light reports the rotation of a fluorescent probe.

The target in experiment [1] is UBC9–SUMO2^B non-covalent complex (human, UniProt P63279;P61956).
The target in experiment [2] is SUMO2 (construct not stated for this experiment) (human, UniProt P61956 1-95).
In experiment [3] the target is UBC9 (human SUMO E2, untagged) (human, UniProt P63279 1-158).
Sequence of UBC9 (human SUMO E2, untagged) (P63279 whole entry): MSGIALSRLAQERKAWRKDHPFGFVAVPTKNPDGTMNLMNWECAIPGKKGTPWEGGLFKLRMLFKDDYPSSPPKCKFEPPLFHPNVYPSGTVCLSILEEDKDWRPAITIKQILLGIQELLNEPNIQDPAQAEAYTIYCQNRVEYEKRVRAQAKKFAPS

B1: Alexa488-labeled CysZNF451(2–56) (domain or fragment)
chain: CGDPGSEIIESVPPAGPEASESTTDENEDDIQFVSEGPLRPVLEYIDLVSSDDEEP
modifications: Alexa488-maleimide on the single engineered N-terminal cysteine
For orientation: Kd means the equilibrium constant for the complex coming apart. A higher Kd goes with lower affinity. In the case of B1, the Kd was 2 µM in experiment [1], 120 to 150 µM in experiment [2] and 10 to 16 µM in experiment [3].
